This passage reports normalised SPOT signal, Boehringer light units (BLU); mean over the file's lines of this peptide results from PMC314469, “Protein Interaction Networks by Proteome Peptide Scanning” (PLoS Biology, 2004).

What all share (experiment): SPOT array
Assay [1] addresses T1, Yfr024 SH3 (LSB3_YEAST), P43603.
T1 chain: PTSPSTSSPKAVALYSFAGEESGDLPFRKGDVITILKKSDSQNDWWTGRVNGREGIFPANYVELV

In assay [2] the target is T2, Yhr016c SH3 (YSC84_YEAST), P32793.
T2 chain: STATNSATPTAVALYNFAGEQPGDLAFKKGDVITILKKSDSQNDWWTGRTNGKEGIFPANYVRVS

Assay [3] deals with T3, Myo5 SH3 (MYO5_YEAST), Q04439.
T3 chain: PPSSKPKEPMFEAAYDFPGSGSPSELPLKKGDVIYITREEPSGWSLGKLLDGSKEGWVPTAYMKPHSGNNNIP

The target of assay [4] is T4, Boi2 SH3 (BOI2_YEAST), P39969.
T4 chain: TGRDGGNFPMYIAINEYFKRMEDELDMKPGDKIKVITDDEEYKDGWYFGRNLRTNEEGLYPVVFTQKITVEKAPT

Assay [5] deals with T5, Boi1 SH3 (BOI1_YEAST), P38041.
T5 chain: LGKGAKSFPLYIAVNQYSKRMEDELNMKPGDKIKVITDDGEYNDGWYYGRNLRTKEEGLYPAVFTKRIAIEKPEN

Assay [6] addresses Sho1 SH3 (SHO1_YEAST), P40073.
Assay [7] concerns the target T6, Rvs167 SH3 (RV167_YEAST), P39743.
T6 chain: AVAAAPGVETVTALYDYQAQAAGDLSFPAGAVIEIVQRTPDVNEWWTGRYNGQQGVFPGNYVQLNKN

Sequence of Sho1 SH3 (SHO1_YEAST), P40073 (P40073 295-366): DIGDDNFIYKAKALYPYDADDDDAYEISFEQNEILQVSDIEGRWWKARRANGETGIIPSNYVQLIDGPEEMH

With KRRSKSLPITPKSI [YIL045W 157-170], the normalised SPOT signal, Boehringer light units (BLU); mean over the file's lines of this peptide in assay [1] amounted to 559; in assay [2], 58.1; in assay [3], 921; in assay [4], 6.2; in assay [5], 585; in assay [6] it was 19400. Besides, the normalised SPOT signal, Boehringer light units (BLU); mean over the file's lines of this peptide in assay [7] was 125.
For KSLQKFEPRYPKTA [YMR014W 24-37], the normalised SPOT signal, Boehringer light units (BLU); mean over the file's lines of this peptide in assay [1] was 134; in assay [2], 50.8; in assay [3], 245; in assay [4], 0; in assay [5], 815; in assay [6], 38.8. In assay [7], this molecule had a normalised SPOT signal, Boehringer light units (BLU); mean over the file's lines of this peptide of 112.
As to KTKKKTVPVKPLQL [YBL017C 684-697], the normalised SPOT signal, Boehringer light units (BLU); mean over the file's lines of this peptide in assay [1] is 179; in assay [2] it was 38; in assay [3], 359; in assay [4], 67.6; in assay [5], 1240; in assay [6] it was 34.1. This molecule gave a normalised SPOT signal, Boehringer light units (BLU); mean over the file's lines of this peptide in assay [7] of 44.3.
As to KQRIRKIPGIPLMS [YDR339C 161-174], the normalised SPOT signal, Boehringer light units (BLU); mean over the file's lines of this peptide in assay [1] was determined as 12300; in assay [2] it was 1120; in assay [3], 622; in assay [4], 108; in assay [5] it was 800; in assay [6], 179. Moreover, the normalised SPOT signal, Boehringer light units (BLU); mean over the file's lines of this peptide in assay [7] is 3830.
Turning to KSIPRTKPNVPPLQ [YDR466W 448-461], the normalised SPOT signal, Boehringer light units (BLU); mean over the file's lines of this peptide in assay [1] came to 62.6; in assay [2], 27.5; in assay [3] it was 343; in assay [4], 5.4; in assay [5] it was 613; in assay [6] it was 46.8. The molecule further displayed a normalised SPOT signal, Boehringer light units (BLU); mean over the file's lines of this peptide in assay [7] of 39.9.
Turning to KQLMKNLPKIPLLN [YDR228C 355-368], the normalised SPOT signal, Boehringer light units (BLU); mean over the file's lines of this peptide was 794 in assay [1]; 95.2 in assay [2]; 580 in assay [3]; 9.8 in assay [4]; 594 in assay [5]; 36400 in assay [6]. Besides, in assay [7], the normalised SPOT signal, Boehringer light units (BLU); mean over the file's lines of this peptide stood at 130.
Consider KRKAKAPPPPPPPP [YDL146W 469-482], for which the normalised SPOT signal, Boehringer light units (BLU); mean over the file's lines of this peptide in assay [1] is 19.3; in assay [2] it was 11.5; in assay [3] it was 4030; in assay [4], 22.4; in assay [5] it was 1100; in assay [6], 17.5. The normalised SPOT signal, Boehringer light units (BLU); mean over the file's lines of this peptide in assay [7] is 31.2.
As to KTSTKAQPAEPQAE [YNL071W 132-145], the normalised SPOT signal, Boehringer light units (BLU); mean over the file's lines of this peptide in assay [1] stood at 162; in assay [2], 43.6; in assay [3], 167; in assay [4] it was 3.7; in assay [5] it was 84.2; in assay [6], 6.5. The molecule further gave a normalised SPOT signal, Boehringer light units (BLU); mean over the file's lines of this peptide in assay [7] of 72.7.
As to KTRNKPKPLWPQVK [YGR033C 56-69], the normalised SPOT signal, Boehringer light units (BLU); mean over the file's lines of this peptide is 178 in assay [1]; 35 in assay [2]; 262 in assay [3]; 43.4 in assay [4]; 1200 in assay [5]; 115 in assay [6]. The molecule further gave a normalised SPOT signal, Boehringer light units (BLU); mean over the file's lines of this peptide in assay [7] of 56.8.
For the molecule KQLKKQGPKRPSSA [YKL032C 354-367], the normalised SPOT signal, Boehringer light units (BLU); mean over the file's lines of this peptide in assay [1] was determined as 751; in assay [2], 109; in assay [3] it was 468; in assay [4], 28.7; in assay [5], 767; in assay [6] it was 151. In addition, in assay [7], the normalised SPOT signal, Boehringer light units (BLU); mean over the file's lines of this peptide is 80.4.
With KSYRKADPTNPQGW [YBR055C 231-244], the normalised SPOT signal, Boehringer light units (BLU); mean over the file's lines of this peptide in assay [1] was determined as 94.7; in assay [2], 9.6; in assay [3], 103; in assay [4] it was 0; in assay [5], 78.2; in assay [6], 29. In assay [7], this molecule came in with a normalised SPOT signal, Boehringer light units (BLU); mean over the file's lines of this peptide of 56.
As for KQSKRARPSSPYTV [YOR153W 486-499], the normalised SPOT signal, Boehringer light units (BLU); mean over the file's lines of this peptide came out at 462 in assay [1]; 66.6 in assay [2]; 271 in assay [3]; 11.9 in assay [4]; 291 in assay [5]; 99.9 in assay [6]. For the same molecule, the normalised SPOT signal, Boehringer light units (BLU); mean over the file's lines of this peptide in assay [7] is 102.
As to KTGRKTFPFLPYQI [YGL012W 364-377], the normalised SPOT signal, Boehringer light units (BLU); mean over the file's lines of this peptide amounted to 171 in assay [1]; 26.1 in assay [2]; 466 in assay [3]; 29.6 in assay [4]; 129 in assay [5]; 140 in assay [6]. This molecule yielded a normalised SPOT signal, Boehringer light units (BLU); mean over the file's lines of this peptide in assay [7] of 56.2.
As to KRRSKSLPTTPGIR [YER054C 189-202], the normalised SPOT signal, Boehringer light units (BLU); mean over the file's lines of this peptide in assay [1] stood at 562; in assay [2] it was 34.5; in assay [3], 592; in assay [4], 0.8; in assay [5], 310; in assay [6] it was 29800. For the same molecule, the normalised SPOT signal, Boehringer light units (BLU); mean over the file's lines of this peptide in assay [7] worked out at 17.6.
